Measured values reported in patent US20210139548A1 (published 2021).
*1 amine or outer side, *2 acyl side, *3 side chain or, on linkers, in order; H or OH if unused. Side-chain parts run from the residue outwards. The star is where a group is joined. C18 diacid = O=C(O)CCCCCCCCCCCCCCCCC(=O)*; γGlu = O=C(O)[C@H](CCC(=O)[*:2])N[*:1]; Isovaleryl = CC(C)CC(=O)*; AEEA = NCCOCCOCC(=O)O

T1: human NPY1 receptor (human, UniProt P25929 1-384)
T1 sequence (looked up): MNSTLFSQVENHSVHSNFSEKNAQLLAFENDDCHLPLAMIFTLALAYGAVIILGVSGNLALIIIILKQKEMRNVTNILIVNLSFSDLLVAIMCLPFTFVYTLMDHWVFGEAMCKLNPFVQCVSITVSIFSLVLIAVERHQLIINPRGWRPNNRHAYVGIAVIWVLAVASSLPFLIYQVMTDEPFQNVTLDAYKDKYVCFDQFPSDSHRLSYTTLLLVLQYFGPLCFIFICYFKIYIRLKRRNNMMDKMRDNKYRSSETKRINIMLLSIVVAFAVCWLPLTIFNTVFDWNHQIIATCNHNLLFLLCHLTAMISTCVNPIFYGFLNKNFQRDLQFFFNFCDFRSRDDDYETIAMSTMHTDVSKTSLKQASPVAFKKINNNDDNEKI

T2: human NPY5 receptor (human, UniProt Q15761 1-445)
T2 sequence (looked up): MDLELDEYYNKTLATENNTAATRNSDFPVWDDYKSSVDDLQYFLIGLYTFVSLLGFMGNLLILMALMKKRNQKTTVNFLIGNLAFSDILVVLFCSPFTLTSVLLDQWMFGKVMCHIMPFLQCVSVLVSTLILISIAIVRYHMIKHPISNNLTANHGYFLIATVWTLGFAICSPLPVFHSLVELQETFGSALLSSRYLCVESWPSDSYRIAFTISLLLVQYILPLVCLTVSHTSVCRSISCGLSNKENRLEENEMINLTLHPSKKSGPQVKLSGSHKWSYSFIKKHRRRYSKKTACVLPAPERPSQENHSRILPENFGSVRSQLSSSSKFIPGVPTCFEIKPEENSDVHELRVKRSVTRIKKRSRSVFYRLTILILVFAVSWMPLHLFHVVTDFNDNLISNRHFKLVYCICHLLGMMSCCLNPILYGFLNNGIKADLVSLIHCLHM

T3: human neuropeptide Y2 receptor (human, UniProt P49146 1-381)
T3 sequence (looked up): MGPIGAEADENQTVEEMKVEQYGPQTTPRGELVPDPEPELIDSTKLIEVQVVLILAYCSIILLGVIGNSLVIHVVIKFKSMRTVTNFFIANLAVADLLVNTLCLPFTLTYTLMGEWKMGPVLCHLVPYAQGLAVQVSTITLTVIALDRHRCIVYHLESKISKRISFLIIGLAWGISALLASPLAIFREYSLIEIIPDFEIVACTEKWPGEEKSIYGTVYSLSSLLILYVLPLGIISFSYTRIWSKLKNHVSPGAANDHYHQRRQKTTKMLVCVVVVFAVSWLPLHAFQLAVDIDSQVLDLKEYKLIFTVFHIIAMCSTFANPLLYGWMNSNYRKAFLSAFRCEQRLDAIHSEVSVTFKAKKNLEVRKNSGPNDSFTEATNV


Columns and labels:
[1] = target: T1, human NPY1 receptor; assay: cell-based or functional assay
[2] = target: T2, human NPY5 receptor; assay: cell-based or functional assay
[3] = target: T3, human neuropeptide Y2 receptor; assay: cell-based or functional assay
[4] = target: human NPY4 receptor (human, UniProt P50391 1-375); assay: cell-based or functional assay
Chain of human NPY4 receptor (P50391 whole entry): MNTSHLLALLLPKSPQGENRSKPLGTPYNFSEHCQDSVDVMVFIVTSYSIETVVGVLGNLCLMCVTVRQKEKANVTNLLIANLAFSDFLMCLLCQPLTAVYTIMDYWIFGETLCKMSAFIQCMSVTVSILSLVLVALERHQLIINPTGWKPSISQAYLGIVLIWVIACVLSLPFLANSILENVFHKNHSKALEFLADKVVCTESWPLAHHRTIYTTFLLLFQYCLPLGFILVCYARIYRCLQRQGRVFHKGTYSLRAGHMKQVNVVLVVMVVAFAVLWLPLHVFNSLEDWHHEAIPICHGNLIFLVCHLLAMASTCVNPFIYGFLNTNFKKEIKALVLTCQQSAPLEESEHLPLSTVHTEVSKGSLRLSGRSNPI

[5] = target: T3, human neuropeptide Y2 receptor; assay: radioligand competition (125I-PYY(1-36)), hNPY2R membranes
Method in brief: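 Commercial human Y2 receptor membranes (0.5 μg protein/well) were incubated with peptide for 2 h at room temperature in 50 mM HEPES, 5 mM MgCl₂, 1 mM CaCl₂, pH 7.4, with 0.2% ovalbumin. Bound radioligand was separated on PEI-soaked GF/C filters and counted by scintillation, and IC₅₀ came from nonlinear sigmoidal regression.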

Binder | EC50 (HTRF cAMP Gi assay) [1] | EC50 (HTRF cAMP Gi assay) [2] | EC50 (HTRF cAMP Gi assay) [3] | EC50 (HTRF cAMP Gi assay) [4] | Ki [5]
Isovaleryl-APEK([AEEA-AEEA-γGlu-C18 diacid])PEEDASPEELQRYYVSLRHYYNWLTRQRY-NH2 (SMILES CC(C)CC(=O)N[C@@H](C)C(=O)N1CCC[C@H]1C(=O)N[C@@H](CCC(=O)O)C(=O)N[C@@H](CCCCNC(=O)COCCOCCNC(=O)COCCOCCNC(=O)CC[C@H](NC(=O)CCCCCCCCCCCCCCCCC(=O)O)C(=O)O)C(=O)N1CCC[C@H]1C(=O)N[C@@H](CCC(=O)O)C(=O)N[C@@H](CCC(=O)O)C(=O)N[C@@H](CC(=O)O)C(=O)N[C@@H](C)C(=O)N[C@@H](CO)C(=O)N1CCC[C@H]1C(=O)N[C@@H](CCC(=O)O)C(=O)N[C@@H](CCC(=O)O)C(=O)N[C@@H](CC(C)C)C(=O)N[C@@H](CCC(N)=O)C(=O)N[C@@H](CCCNC(=N)N)C(=O)N[C@@H](Cc1ccc(O)cc1)C(=O)N[C@@H](Cc1ccc(O)cc1)C(=O)N[C@H](C(=O)N[C@@H](CO)C(=O)N[C@@H](CC(C)C)C(=O)N[C@@H](CCCNC(=N)N)C(=O)N[C@@H](Cc1c[nH]cn1)C(=O)N[C@@H](Cc1ccc(O)cc1)C(=O)N[C@@H](Cc1ccc(O)cc1)C(=O)N[C@@H](CC(N)=O)C(=O)N[C@@H](Cc1c[nH]c2ccccc12)C(=O)N[C@@H](CC(C)C)C(=O)N[C@H](C(=O)N[C@@H](CCCNC(=N)N)C(=O)N[C@@H](CCC(N)=O)C(=O)N[C@@H](CCCNC(=N)N)C(=O)N[C@@H](Cc1ccc(O)cc1)C(N)=O)[C@@H](C)O)C(C)C) [Compound 54] | > 5000 nM | > 5000 nM | 0.131 nM | > 5000 nM | 0.95 nM
Isovaleryl-APEK([AEEA-AEEA-γGlu-C18 diacid])PEEDAEPAELQRYYVSLRHYYNWLTRQRY-NH2 (SMILES CC(C)CC(=O)N[C@@H](C)C(=O)N1CCC[C@H]1C(=O)N[C@@H](CCC(=O)O)C(=O)N[C@@H](CCCCNC(=O)COCCOCCNC(=O)COCCOCCNC(=O)CC[C@H](NC(=O)CCCCCCCCCCCCCCCCC(=O)O)C(=O)O)C(=O)N1CCC[C@H]1C(=O)N[C@@H](CCC(=O)O)C(=O)N[C@@H](CCC(=O)O)C(=O)N[C@@H](CC(=O)O)C(=O)N[C@@H](C)C(=O)N[C@@H](CCC(=O)O)C(=O)N1CCC[C@H]1C(=O)N[C@@H](C)C(=O)N[C@@H](CCC(=O)O)C(=O)N[C@@H](CC(C)C)C(=O)N[C@@H](CCC(N)=O)C(=O)N[C@@H](CCCNC(=N)N)C(=O)N[C@@H](Cc1ccc(O)cc1)C(=O)N[C@@H](Cc1ccc(O)cc1)C(=O)N[C@H](C(=O)N[C@@H](CO)C(=O)N[C@@H](CC(C)C)C(=O)N[C@@H](CCCNC(=N)N)C(=O)N[C@@H](Cc1c[nH]cn1)C(=O)N[C@@H](Cc1ccc(O)cc1)C(=O)N[C@@H](Cc1ccc(O)cc1)C(=O)N[C@@H](CC(N)=O)C(=O)N[C@@H](Cc1c[nH]c2ccccc12)C(=O)N[C@@H](CC(C)C)C(=O)N[C@H](C(=O)N[C@@H](CCCNC(=N)N)C(=O)N[C@@H](CCC(N)=O)C(=O)N[C@@H](CCCNC(=N)N)C(=O)N[C@@H](Cc1ccc(O)cc1)C(N)=O)[C@@H](C)O)C(C)C) [Compound 244] |  |  |  |  | 1.84 nM
Isovaleryl-APEK([AEEA-AEEA-γGlu-C18 diacid])PEEDATPEEIQRYYVSLRHYYNWLTRQRY-NH2 [Compound 171] | > 5000 nM | > 5000 nM |  | > 5000 nM | 
